These are literature values, as cited in PMC4769028.

This data set concerns the target CusA (Escherichia coli) (UniProt P38054). Nature of the data set: ITC.
UniProt P38054, sequence (P38054 whole entry): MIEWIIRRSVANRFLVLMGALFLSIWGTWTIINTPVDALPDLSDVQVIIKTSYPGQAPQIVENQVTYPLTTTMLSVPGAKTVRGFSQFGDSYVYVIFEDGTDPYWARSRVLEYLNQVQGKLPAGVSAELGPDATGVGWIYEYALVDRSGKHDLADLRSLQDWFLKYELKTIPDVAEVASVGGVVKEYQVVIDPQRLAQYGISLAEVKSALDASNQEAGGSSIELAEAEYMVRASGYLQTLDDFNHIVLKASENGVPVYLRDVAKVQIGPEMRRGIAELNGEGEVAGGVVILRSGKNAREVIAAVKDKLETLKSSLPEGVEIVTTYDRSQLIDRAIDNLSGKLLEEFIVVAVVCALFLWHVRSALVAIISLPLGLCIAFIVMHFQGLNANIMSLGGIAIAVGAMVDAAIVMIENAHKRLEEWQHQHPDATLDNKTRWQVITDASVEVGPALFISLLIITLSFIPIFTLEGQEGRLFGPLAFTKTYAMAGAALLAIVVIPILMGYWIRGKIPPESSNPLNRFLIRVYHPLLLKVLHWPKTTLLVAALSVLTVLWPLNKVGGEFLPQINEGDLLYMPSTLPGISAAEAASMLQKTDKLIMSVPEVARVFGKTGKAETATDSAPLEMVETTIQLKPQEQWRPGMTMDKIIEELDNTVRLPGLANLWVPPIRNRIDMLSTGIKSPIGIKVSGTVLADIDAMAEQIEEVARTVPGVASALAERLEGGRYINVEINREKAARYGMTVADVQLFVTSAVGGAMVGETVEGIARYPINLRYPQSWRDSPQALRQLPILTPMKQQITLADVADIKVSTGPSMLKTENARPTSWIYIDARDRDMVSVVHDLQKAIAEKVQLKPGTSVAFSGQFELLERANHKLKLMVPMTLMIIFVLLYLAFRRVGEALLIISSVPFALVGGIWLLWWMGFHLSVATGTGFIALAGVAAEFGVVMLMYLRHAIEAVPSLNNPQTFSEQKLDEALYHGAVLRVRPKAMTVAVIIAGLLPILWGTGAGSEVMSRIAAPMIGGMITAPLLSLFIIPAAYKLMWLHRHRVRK

In general, Kd refers to a measure of binding affinity in units of concentration. On to CusB (from UniProt P77239), for which the Kd is 5.1 µM.
